Assay results reported in the supplement of paper PMC7877785.
± gives the uncertainty stated by the source.

Assay: self-splicing fitness, log relative to wild type (ln ratio); higher = more splicing; Tetrahymena group I intron in knt gene, E. coli kanamycin selection, DiMSum; sequences stand for … in CUCUCU…GGAGGGAAAAGUUAUCAGGCAUGCACCUGGUAGCUAGUCUUUAAACCAAUAGAUUGCAUCGGUUUAAAAGGCAAGACCGUCAAAUUGCGGGAAAGGGGUCAACAGCCGUUCAGUACCAAGUCUCAGGGGAAACUUUGAGAUGGCCUUGCAAAGGGUAUGGUAAUAAGCUGACGGACAUGGUCCUAACCACGCAGCCAAGUCCUAAGUCAACAGAUCUUCUGUUGAUAUGGAUGCAGUUCACAGACUAAAUGUCGGUCGGGGAAGAUGUAUUCUUCUCAUAAGAUAUAGUCGGACCUCUCCUUAAUGGGAGCUAGCGGAUGAAGUGAUGCAACACUGGAGCCGCUGGGAACUAAUUUGUAUGCGAAAGUAUAUUGAUUAGUUUUGGAGUACUCGUGGUCG
In short: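 The eight P1ex-region nucleotides of an intron in the knt kanamycin-resistance gene on pET-22b(+) were all randomised and the library put into E. coli BL21(DE3). Six replicate transformations were grown overnight at 37°C or 30°C on LB agar with or without 25 μg/mL kanamycin, together with 100 μg/mL carbenicillin, 50 μM IPTG and 0.2% rhamnose. Colonies were pooled and amplicon-sequenced on an Illumina HiSeq 2500. Fitness from DiMSum is the error-weighted combination of wild-type-normalised replicate fold changes, kanamycin over none.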

Row | Sequence | self-splicing fitness (ln) (30 °C) | self-splicing fitness (ln) (37 °C)
1 | UACCAGCAAUAUUACGUCCC | -1.47 ± 0.35 | -1.38 ± 0.38
2 | UACCAGCAAUAUUACGUCUA | 0.0647 ± 0.067 | 0.41 ± 0.086
3 | UACCAGCAAUAUUACGUCUC | -2.4 ± 0.14 | -2.26 ± 0.18
4 | UACCAGCAAUAUUACGUUCA | -0.401 ± 0.06 | 0.27 ± 0.08
5 | UACCAGCAAUAUUACGUUUG | -3.36 ± 0.12 | -2.43 ± 0.13
6 | UACCAGCAAUAUUACGUUUU | -1.51 ± 0.094 | -2.37 ± 0.15
7 | UACGAGCAAUAUUACGAAAC | -2.05 ± 0.48 | –
8 | UACGAGCAAUAUUACGAACG | -2.96 ± 0.26 | -2.05 ± 0.16
9 | UACGAGCAAUAUUACGACUA | -0.65 ± 0.085 | -0.167 ± 0.1
10 | UACGAGCAAUAUUACGACUG | -0.684 ± 0.24 | -1.35 ± 0.17
11 | UACGAGCAAUAUUACGAUAA | -2.9 ± 0.16 | -2.05 ± 0.16
12 | UACGAGCAAUAUUACGAUUG | -3.62 ± 0.25 | -0.584 ± 0.2
13 | UACGAGCAAUAUUACGCAGC | -3.16 ± 0.34 | -3.83 ± 0.46
14 | UACGAGCAAUAUUACGCGAA | -2.89 ± 0.32 | -2.72 ± 0.26
15 | UACGAGCAAUAUUACGCUCA | -1.46 ± 0.15 | -0.952 ± 0.2
16 | UACGAGCAAUAUUACGGAAG | -3.5 ± 0.24 | -2.26 ± 0.37
17 | UACGAGCAAUAUUACGGACU | -2.36 ± 0.23 | –
18 | UACGAGCAAUAUUACGGGAA | -1.91 ± 0.2 | -2.85 ± 0.4
19 | UACGAGCAAUAUUACGGGGG | -4.08 ± 0.29 | -3.14 ± 0.34
20 | UACGAGCAAUAUUACGGGGU | -3.05 ± 0.14 | -2.28 ± 0.14
21 | UACGAGCAAUAUUACGGUAG | -2.97 ± 0.14 | -2.35 ± 0.17
22 | UACGAGCAAUAUUACGGUAU | -3.12 ± 0.26 | -3.28 ± 0.3
23 | UACGAGCAAUAUUACGUCUG | -1.51 ± 0.1 | -1.34 ± 0.11
24 | UACGAGCAAUAUUACGUGCU | -3.9 ± 0.23 | -2.4 ± 0.19
25 | UACGAGCAAUAUUACGUGGU | -2.86 ± 0.15 | -1.87 ± 0.23

Row | Sequence | self-splicing fitness (ln) (30 °C) | self-splicing fitness (ln) (37 °C)
26 | UACGAGCAAUAUUACGUGUC | -3.32 ± 0.17 | -2.83 ± 0.28
27 | UACGAGCAAUAUUACGUUAG | -3.03 ± 0.17 | -2.32 ± 0.19
28 | UACGAGCAAUAUUACGUUCC | -2.83 ± 0.36 | –
29 | UACGAGCAAUAUUACGUUGA | -3.2 ± 0.24 | -2.73 ± 0.23
30 | UACUAGCAAUAUUACGACAG | -1.04 ± 0.1 | -0.806 ± 0.13
31 | UACUAGCAAUAUUACGACUA | 0.113 ± 0.097 | 0.792 ± 0.11
32 | UACUAGCAAUAUUACGAGGC | -3.01 ± 0.17 | -2.27 ± 0.23
33 | UACUAGCAAUAUUACGAUGU | -3.42 ± 0.27 | -1.74 ± 0.22
34 | UACUAGCAAUAUUACGCCGG | -1.68 ± 0.18 | -0.8 ± 0.17
35 | UACUAGCAAUAUUACGCGAC | -2.29 ± 0.25 | -2.29 ± 0.3
36 | UACUAGCAAUAUUACGCGCG | -0.375 ± 0.12 | -0.0222 ± 0.12
37 | UACUAGCAAUAUUACGCUGA | -2.48 ± 0.16 | -1.37 ± 0.15
38 | UACUAGCAAUAUUACGCUUC | -2.88 ± 0.17 | -1.66 ± 0.26
39 | UACUAGCAAUAUUACGGAAU | -4.58 ± 0.39 | -2.95 ± 0.23
40 | UACUAGCAAUAUUACGGCAG | -0.408 ± 0.075 | 0.134 ± 0.12
41 | UACUAGCAAUAUUACGGCGA | -0.849 ± 0.11 | 0.621 ± 0.13
42 | UACUAGCAAUAUUACGGGCG | -0.0495 ± 0.11 | 0.375 ± 0.14
43 | UACUAGCAAUAUUACGGUGC | -3.29 ± 0.26 | -2.04 ± 0.31
44 | UACUAGCAAUAUUACGGUUA | -0.377 ± 0.1 | 0.35 ± 0.12
45 | UACUAGCAAUAUUACGGUUU | -1.41 ± 0.1 | -0.44 ± 0.12
46 | UACUAGCAAUAUUACGUAUA | -2.31 ± 0.29 | -1.19 ± 0.21
47 | UACUAGCAAUAUUACGUCAU | -2.66 ± 0.2 | -1.74 ± 0.13
48 | UACUAGCAAUAUUACGUCCG | -0.327 ± 0.12 | 0.11 ± 0.14
49 | UACUAGCAAUAUUACGUCGA | -2.11 ± 0.12 | -0.821 ± 0.12
50 | UACUAGCAAUAUUACGUGAA | -2.19 ± 0.11 | -1.18 ± 0.13

Row | Sequence | self-splicing fitness (ln) (30 °C) | self-splicing fitness (ln) (37 °C)
51 | UACUAGCAAUAUUACGUUUA | -2.47 ± 0.16 | -1.05 ± 0.12
52 | UAGAAGCAAUAUUACGACCA | -0.67 ± 0.094 | -0.157 ± 0.12
53 | UAGAAGCAAUAUUACGAUAU | -3.44 ± 0.25 | -2.19 ± 0.19
54 | UAGAAGCAAUAUUACGAUGU | -3.01 ± 0.18 | -1.69 ± 0.19
55 | UAGAAGCAAUAUUACGCCAU | -1.02 ± 0.4 | –
56 | UAGAAGCAAUAUUACGCCCU | -0.743 ± 0.19 | 0.316 ± 0.22
57 | UAGAAGCAAUAUUACGCGCA | -0.327 ± 0.15 | 0.03 ± 0.18
58 | UAGAAGCAAUAUUACGCGCU | -1.28 ± 0.16 | -1.85 ± 0.17
59 | UAGAAGCAAUAUUACGCUGA | – | -1.74 ± 0.2
60 | UAGAAGCAAUAUUACGCUGG | -1.38 ± 0.16 | -0.436 ± 0.18
61 | UAGAAGCAAUAUUACGGACA | -0.547 ± 0.11 | -0.0716 ± 0.13
62 | UAGAAGCAAUAUUACGGACG | -0.286 ± 0.13 | 0.291 ± 0.16
63 | UAGAAGCAAUAUUACGGAGC | – | -3.93 ± 0.46
64 | UAGAAGCAAUAUUACGGAUG | -1.41 ± 0.099 | -0.694 ± 0.12
65 | UAGAAGCAAUAUUACGGCUC | -2.6 ± 0.3 | -0.946 ± 0.3
66 | UAGAAGCAAUAUUACGGGAG | -1.97 ± 0.14 | -1.39 ± 0.12
67 | UAGAAGCAAUAUUACGGGGA | -2.39 ± 0.14 | -0.988 ± 0.12
68 | UAGAAGCAAUAUUACGGGUU | -4.54 ± 0.34 | -1.87 ± 0.2
69 | UAGAAGCAAUAUUACGGUAC | -3.25 ± 0.37 | –
70 | UAGAAGCAAUAUUACGGUGG | -1.84 ± 0.12 | -1.2 ± 0.13
71 | UAGAAGCAAUAUUACGUCAC | -2.92 ± 0.35 | –
72 | UAGAAGCAAUAUUACGUGAU | -2.73 ± 0.11 | -1.84 ± 0.11
73 | UAGAAGCAAUAUUACGUGCG | -0.462 ± 0.082 | -0.125 ± 0.098
74 | UAGAAGCAAUAUUACGUGGA | -2.1 ± 0.13 | -1.92 ± 0.16
75 | UAGCAGCAAUAUUACGAAGG | -2.85 ± 0.12 | -2.21 ± 0.19

Row | Sequence | self-splicing fitness (ln) (30 °C) | self-splicing fitness (ln) (37 °C)
76 | UAGCAGCAAUAUUACGACGU | -1.14 ± 0.073 | -0.658 ± 0.1
77 | UAGCAGCAAUAUUACGAGUG | -1.02 ± 0.075 | -0.131 ± 0.075
78 | UAGCAGCAAUAUUACGAGUU | -3.47 ± 0.15 | -1.98 ± 0.14
79 | UAGCAGCAAUAUUACGAUAG | -1.78 ± 0.073 | -1.46 ± 0.1
80 | UAGCAGCAAUAUUACGCAGG | -3.01 ± 0.25 | -2.14 ± 0.25
81 | UAGCAGCAAUAUUACGCAUG | -0.793 ± 0.096 | -1.17 ± 0.14
82 | UAGCAGCAAUAUUACGCCCG | -0.432 ± 0.18 | -0.57 ± 0.21
83 | UAGCAGCAAUAUUACGGAGU | -3.64 ± 0.18 | -2.78 ± 0.15
84 | UAGCAGCAAUAUUACGGCAC | -2.14 ± 0.18 | 0.167 ± 0.21
85 | UAGCAGCAAUAUUACGGCGU | -0.605 ± 0.12 | 0.0421 ± 0.13
86 | UAGCAGCAAUAUUACGGGCG | -0.609 ± 0.065 | -0.24 ± 0.087
87 | UAGCAGCAAUAUUACGGGUC | – | -3.65 ± 0.42
88 | UAGCAGCAAUAUUACGUAUC | -3.16 ± 0.16 | -2.87 ± 0.25
89 | UAGCAGCAAUAUUACGUCAC | -4.49 ± 0.42 | -2.46 ± 0.33
90 | UAGCAGCAAUAUUACGUCAG | -0.628 ± 0.1 | -1.13 ± 0.12
91 | UAGCAGCAAUAUUACGUCGG | -0.706 ± 0.1 | -0.878 ± 0.13
92 | UAGCAGCAAUAUUACGUCUG | -1.32 ± 0.14 | -1.6 ± 0.14
93 | UAGCAGCAAUAUUACGUGCA | -0.411 ± 0.082 | -0.287 ± 0.086
94 | UAGCAGCAAUAUUACGUUGA | -2.46 ± 0.13 | -2.07 ± 0.12
95 | UAGGAGCAAUAUUACGAAGU | – | -2.35 ± 0.43
96 | UAGGAGCAAUAUUACGAGAU | – | -1.95 ± 0.36
97 | UAGGAGCAAUAUUACGAGGG | -3.6 ± 0.42 | -2.35 ± 0.33
98 | UAGGAGCAAUAUUACGAUUC | -2.08 ± 0.37 | –
99 | UAGGAGCAAUAUUACGAUUG | -1.85 ± 0.15 | -0.617 ± 0.16
